The target in the assay is T1, human CD2 (cluster of differentiation 2) (human, UniProt P06729 25-351).
T1 construct: Presented on cells: human CD8+ T cells, CD2-transduced U698M B-cell lymphoma cells, Jurkat cells and human PBMCs; also called CD2 target antigen; CD2 surface marker
T1 sequence: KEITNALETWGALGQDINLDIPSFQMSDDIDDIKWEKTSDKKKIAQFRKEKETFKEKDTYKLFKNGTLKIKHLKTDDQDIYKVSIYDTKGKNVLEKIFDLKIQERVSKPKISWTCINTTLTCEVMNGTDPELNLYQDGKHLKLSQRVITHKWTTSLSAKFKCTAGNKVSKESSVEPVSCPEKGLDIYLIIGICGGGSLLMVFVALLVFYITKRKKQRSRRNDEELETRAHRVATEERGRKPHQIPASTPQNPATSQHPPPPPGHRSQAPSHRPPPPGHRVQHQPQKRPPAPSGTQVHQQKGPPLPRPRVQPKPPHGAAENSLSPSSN
The assay is described as follows: flow cytometry titration on human CD8+ T cells, one-site specific binding fit, triplicates. On the procedure: Determined affinity binding curves for CD2-sdAb (B) at different concentrations on human CD8+ T cells. R3b23-sdAb served as a negative control for unspecific binding (A). Binding of CD2-sdAb (B) is shown as a fraction of the maximum specific binding (Bₘₐₓ) and the binding intensity of R3b23-sdAb (A) is shown via the MFI at the different concentrations. Measurements were performed in triplicates and data is depicted on a semi-logarithmic scale. The dissociation constant (Ko) for CD2 was calculated based of one-site specific binding and is 2.3×10⁻⁹ [M].

B1: anti-CD2 single domain antibody according to SEQ ID No. 18 (VHH)
VHH: QVQLQESGGGSVQPGGSLRLSCTVSGRTFSNYAVGWFRQAPGKEREFVATITGSGTAYADSVKGRFTISRDNAKNTVYLQMNSLKPEDTAVYYCAATWSSGYTFRSPTQYDYWGQGTQVTVSS
notes: also called CD2-sdAb; anti-CD2-sdAb
On to B1, for which the Kd (commonly the constant that tells how readily two partners part at equilibrium) worked out at 2.3 nM.

Source of the values: US20260234251A1 (IMNOTECH, published 2026).
